Source: publication PMC4686757

Tests used:
E2F8 DBD1-DBD2 [1] = biological target: T1, E2F8 DBD1-DBD2 (human, UniProt A0AVK6 110-350); test: ITC; 20 C; ITC: 20 mM HEPES pH 7.5, 150 mM NaCl, 5% glycerol, TCEP (printed 0.5 M), 20 C; 0.1 mM protein into 0.012-0.016 mM DNA
E2F8 DBD1-DBD2 [2] = biological target: T1, E2F8 DBD1-DBD2; test: ITC; no binding detected under same conditions, 20 C; ITC: 20 mM HEPES pH 7.5, 150 mM NaCl, 5% glycerol, TCEP (printed 0.5 M), 20 C; 0.1 mM protein into 0.012-0.016 mM DNA

T1 sequence (A0AVK6 110-350): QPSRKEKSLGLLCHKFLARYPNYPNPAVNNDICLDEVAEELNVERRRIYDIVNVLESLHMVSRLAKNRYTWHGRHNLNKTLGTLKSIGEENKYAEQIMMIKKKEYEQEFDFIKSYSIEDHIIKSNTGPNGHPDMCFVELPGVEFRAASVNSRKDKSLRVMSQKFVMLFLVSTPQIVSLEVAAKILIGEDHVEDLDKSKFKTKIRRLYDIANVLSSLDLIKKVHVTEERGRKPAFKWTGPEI

B1: E2F8 SELEX-preferred site GGCGGG (dsDNA)
DNA 1: TTTTTGGCGGGAAAA
DNA 2: TTTTCCCGCCAAAAA
Kd (E2F8 DBD1-DBD2 [1]): ~260 nM

B2: canonical symmetrical E2F site GCGCGCC (dsDNA)
DNA 1: CTTTTGCGCGCCAAAG
DNA 2: CTTTGGCGCGCAAAAG
binding result (E2F8 DBD1-DBD2 [2]): no binding
